Measurements: US9920082B2, “Water-soluble complexing agents and corresponding lanthanide complexes” (CISBIO BIOASSAYS, priority 2013, dated 2018)

What was measured:
[1] = Photophysical properties of the complexes (λ max, quantum yield, life-time); type: physicochemical; conditions: solvent MeOH
From the text: The photophysical characteristics of some complexes are described in Table 3. […] The values of the quantum yields (Φcm) must be considered to have a margin of error of ±15%. All these complexes have quantum yields above 10%, without adding potassium fluorides. The life-times (τ0) are at least 0.7 ms, which is favorable for FRET experiments. Finally, the complexes comprising solubilizer groups of the sulfonate or carboxylate type are highly soluble in aqueous biological buffers. The presence of charges makes complexes water-soluble that were not so initially.

[2] = Determination of Log P (octanol/water partition coefficient) of europium complexes; type: physicochemical; conditions: water/octanol mixtures 2:1, 1:1, 1:2, about 2 μM, ±20%
From the text: Log P is a measure of the differential solubility of chemical compounds in two solvents (octanol/water partition coefficient). Log P is equal to the logarithm of the ratio of the concentrations of the substance under investigation in octanol and in water. Log P=Log(Coct/Cwater). This value ascertains the hydrophilic or hydrophobic (lipophilic) character of a molecule. In fact, if Log P is positive and very high, this expresses the fact that the molecule considered is far more soluble in octanol than in water, which reflects its lipophilic character, and vice versa. Zero or negative Log P signifies that the molecule is of a hydrophilic character.
Three equimolar solutions of europium complex were prepared in methanol. The solvent was removed under reduced pressure and the solid that remained was dissolved and stirred for 24 h in a water/octanol mixture (2:1, 1:1, 1:2), (0.9 mL) giving a total concentration of about 2 μM. After equilibration, an emission spectrum of each phase was recorded in methanol (50 μL of solution in 1 mL of methanol). For each mixture, the value of log P was calculated using the following equation: […]

COc1ccc(C#Cc2cc(CN3CCN(Cc4cc(C#Cc5ccc(OC)cc5)cc(P(C)(=O)O)n4)CCN(Cc4cc(C#Cc5ccc(OCC(=O)NCC(=O)N[C@@H](CCCNC(=N)N)C(=O)N[C@@H](CCCNC(=N)N)C(=O)N[C@@H](CCCNC(=N)N)C(=O)N[C@@H](CCCNC(=N)N)C(=O)N[C@@H](CCCNC(=N)N)C(=O)N[C@@H](CCCNC(=N)N)C(=O)N[C@@H](CCCNC(=N)N)C(=O)O)cc5)cc(P(C)(=O)O)n4)CC3)nc(P(C)(=O)O)c2)cc1 [Compound 89]
λ max [1]: 330 nm
τ0 [1]: 1.12 ms
Φem ([1]; margin of error ±15%): 50%
logP [2]: 0.3
